In one experiment the target is T1, SMN Tudor domain (SMN) (Homo sapiens, UniProt Q16637).
T1 construct: gene SMN1; SMN Tudor domain (80–167 aa), C-terminal His6-tag
The experiment in a line: isothermal titration calorimetry (ITC), […] model, N fixed at […]. In kind it is binding. For orientation: In ITC the heat of successive injections is recorded.

Experiment [1] deals with SMN Tudor domain (80-167 aa) with a C-terminal His6-tag (UniProt Q16637). The experiment in a line: ITC; 2 mM or 5 mM ligand in the syringe injected into 200 uM or 300 uM SMN Tudor in the cell; 1x PBS, 25 °C; one site model with stoichiometry (N) fixed at 1.

By Kd is commonly meant the concentration at which binding is half-saturated.

Like-named read-outs stand apart in the source and are kept apart here. A value given as a limit tells only on which side of the number the result lay.

T1 sequence (Q16637 80-167): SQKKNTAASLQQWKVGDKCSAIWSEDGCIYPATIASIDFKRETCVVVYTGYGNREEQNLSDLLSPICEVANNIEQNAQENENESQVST
Sequence of SMN Tudor domain (80-167 aa) with a C-terminal His6-tag (Q16637 80-167): as above

`CNC(=N)NCCC[C@H](N)C(=O)O` [MMA, Methylarginine (L-NMMA)] had a Kd on SMN Tudor domain (SMN) of 1800 ± 322 µM.

On to “SmD1-aDMA heptapeptide AGRme2aGRGR, residues 96–102 of SmD1”, for which, in experiment [1], the dissociation constant (Kd) was 834 µM and the dH is -8.02 kcal/mol. As for “SmD1 heptapeptide AGRGRGR, residues 96–102 of SmD1”, in experiment [1], the Kd is more than 2000 µM.

In experiment [1], “SmD1-sDMA heptapeptide AGRme2sGRGR, residues 96–102 of SmD1” came in with a Kd of 375 µM and a dH of -14.5 kcal/mol. On to `CN(C)C(=N)NCCC[C@H](N)C(=O)O` [aDMA, Asymmetric dimethylarginine], for which, at SMN Tudor domain (SMN) (read-out: KD), the dissociation constant (Kd) was determined as 860 ± 34 µM. On to `CN=C(NC)NCCC[C@H](N)C(=O)O` [sDMA, Symmetric dimethylarginine], for which the Kd on SMN Tudor domain (SMN) (read-out: KD) is 359 ± 45 µM.

For the origin of these results see paper PMC12678802, “Tudor-based proteomic strategy pan-specifically enriches and identifies protein arginine methylation” (EMBO Reports, 2025).
